Test [1] addresses β-arrestin-1-R7-F2Y (UniProt P17870). The experiment in a line: 19F-NMR.
For test [2], the target named is β-arrestin-1–Y63-F2Y (UniProt P17870). Nature of the test: 19F-NMR.
Sequence of β-arrestin-1–Y63-F2Y (P17870 whole entry, stated change not applied): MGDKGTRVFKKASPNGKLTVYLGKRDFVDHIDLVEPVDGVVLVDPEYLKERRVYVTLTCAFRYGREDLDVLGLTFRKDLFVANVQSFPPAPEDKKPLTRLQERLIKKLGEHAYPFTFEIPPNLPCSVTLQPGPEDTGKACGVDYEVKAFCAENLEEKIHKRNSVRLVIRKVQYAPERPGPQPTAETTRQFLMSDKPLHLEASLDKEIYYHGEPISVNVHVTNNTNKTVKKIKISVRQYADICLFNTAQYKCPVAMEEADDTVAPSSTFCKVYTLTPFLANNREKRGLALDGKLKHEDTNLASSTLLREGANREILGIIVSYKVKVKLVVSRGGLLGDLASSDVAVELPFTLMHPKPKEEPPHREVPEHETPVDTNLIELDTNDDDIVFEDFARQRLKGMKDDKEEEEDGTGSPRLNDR

Sequence of β-arrestin-1-R7-F2Y (P17870 other isoform, or with tags, fused parts or gaps R7-F2Y): as the sequence (P17870 whole entry, stated change not applied) above, with R7Y counted along it

Consider “GRK6pp (GRK6-phosphorylated β2AR C-tail) pS355S”, for which the other: 19F chemical shift change in test [1] came out at 0.09 p.p.m; in test [2], 0.02 p.p.m.

“GRK6pp (GRK6-phosphorylated β2AR C-tail) E369A”: the results for the other: 19F chemical shift change in test [1] and in test [2] were 0.01 p.p.m and 0.89 p.p.m, respectively.

The record behind these values is publication PMC4569848.
